The Kd is the concentration at which binding is half-saturated.

In publication PMC10127277 one finds Kd data, which are given here for 1 molecule.

In the test the target is human RNF128 (GRAIL) extracellular domain (human) (UniProt Q8TEB7). Put plainly: SPR; Biacore T100; biotinylated ECD (ligand) captured on a streptavidin (SA) series S chip, ~100-200 RU; non-biotinylated VHH as analyte in HBS-P+ buffer, twofold dilutions from 500 nM (RNF128 E2, RNF130 D1) or 1000 nM (RNF43 C8); injection 60 s at 30 ul/min, dissociation 240 s; regeneration 1 x 10 sec glycine pH 2.5; 1:1 Langmuir model or equilibrium. For orientation: Surface plasmon resonance follows binding to a sensor surface in real time, without labels.
human RNF128 (GRAIL) extracellular domain (human), sequence (Q8TEB7 39-428): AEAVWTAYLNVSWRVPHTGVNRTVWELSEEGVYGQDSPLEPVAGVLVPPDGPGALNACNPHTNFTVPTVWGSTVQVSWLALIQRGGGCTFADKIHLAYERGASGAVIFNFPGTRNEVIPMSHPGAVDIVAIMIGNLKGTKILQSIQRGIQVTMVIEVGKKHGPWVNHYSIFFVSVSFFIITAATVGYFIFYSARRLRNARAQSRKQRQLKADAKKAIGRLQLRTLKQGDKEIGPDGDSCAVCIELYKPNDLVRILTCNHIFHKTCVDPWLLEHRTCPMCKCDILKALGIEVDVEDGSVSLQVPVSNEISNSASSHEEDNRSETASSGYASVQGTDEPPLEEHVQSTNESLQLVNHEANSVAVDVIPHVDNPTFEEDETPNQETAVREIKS

B1: RNF128-E2 nanobody (VHH)
VHH: QVQLQESGGGLVQAGGSLRLSCAASGSISGGKGMGWYRQAPGKEREFVAAIGSGAITYYADSVKGRFTISRDNAKNTVYLQMNSLKPEDTAVYYCAVYTTALDEYPYWGQGTQVTVSS
In turn, B1 came in with a Kd of 10 nM.
